Tests used:
Assay in all cases: Y2H β-galactosidase liquid culture assay (ONPG)
[1] = molecular target: PS2-Loop Y2H bait (human) (UniProt P49810)
[2] = molecular target: PS1-Loop Y2H bait (human)
[3] = molecular target: PS1-COOH terminus Y2H bait (human)

Chain of PS1-Loop Y2H bait (human) (P79802 273-380): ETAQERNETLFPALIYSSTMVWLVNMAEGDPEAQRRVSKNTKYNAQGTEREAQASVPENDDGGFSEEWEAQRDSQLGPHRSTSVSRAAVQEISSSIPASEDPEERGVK
Chain of PS2-Loop Y2H bait (human) (P49810 271-361): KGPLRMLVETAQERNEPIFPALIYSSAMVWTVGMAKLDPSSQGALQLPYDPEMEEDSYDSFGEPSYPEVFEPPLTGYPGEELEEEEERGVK

- interaction strength relative to the PS2-COOH-terminal bait [1]: 2 fold
- interaction strength relative to the PS2-COOH-terminal bait [2]: 2 fold
- fold β-galactosidase activity compared with negative-control baits [3]: > 12 fold
Substance: near full-length ubiquilin-prey clone (FIG. 2 III, construct H without GST), M37-S595 (from UniProt Q9UMX0 37-587)
